Several values for one entry are separate records, joined by “and”; a condition that tells them apart may be missing. Equal entries are not always repeated.
Target: Saccharomyces cerevisiae glutaredoxin Grx6 (recombinant, without the signal peptide) (S. cerevisiae) (UniProt Q12438)
Assay: SEC; gel filtration of freshly purified recombinant protein on a Superdex 75 column, elution followed at 280 nm and 430 nm; the dimer peak is brown (Fe-S centre); FeSO4·7H2O and (NH4)2Fe(SO4)2·6H2O added in one run (more dimer and tetramer)

Saccharomyces cerevisiae glutaredoxin Grx6 (recombinant, without the signal peptide) (from UniProt Q12438 30-231) (natural protein)
stoichiometry N: 4 and 2
